The series is described as follows: yeast display, Sf9 membrane polyspecificity reagent, FACS + sequencing; frameworks hold sequencing errors. The gist of the method:
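Nanobodies came from a synthetic yeast display library in Saccharomyces cerevisiae BJ5465, induced with galactose for 36–48 hours and stained for 1 hour at 4 °C with 10% biotinylated, detergent-solubilized Sf9 membrane reagent. Cells were enriched on streptavidin microbeads and then FACS-sorted, with low and high (top ~1%) gates set on anti-HA fluorescence for expression and streptavidin fluorescence for reagent binding. Each polyreactivity label reflects the gate a clone came from. Genes were amplified by colony PCR, sequenced by MiSeq 2 × 250 and filtered by CDR length.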
As to “QVQLVESGGGLVQAGGSLRLSCAASGSIFDWYAMGWYRQAPGKEGELVAAISSGDSTYYADSVKGRFTISRDNAKKTVYLQMNSLKPEDTAVYYCAAVTKLSGIRYNYWGQGTQVTVSS”, the “polyreactivity (PSR sort gate)” value is “low polyreactivity”. To “QVQLVESGGGLVQAGGSLRLSCAASGRNFPVNAMGWYRQAPGKERELVATISYSGSSTYYADSVKARFTISRDNAKNTVYLQMNSLKPEDTAVYYCNADAESFDDGYWGQGTEVTVSS” belongs “low polyreactivity”; to “QVQLVESGGGLVQAGGSLRLSCAASGITFARYAMGWYRQAPGKERELVAAISSRGGRTYYADSVKGRFTISRDNAKNTVYLQMNSLKPEDTAVYYCAADYVWSTISGYWGQGTQVTVSS”, “high polyreactivity”; to “QVQLVESGGGLVQAGGSLRLSCAASGNTFSRYAMGWYRQAPGKERELVAAISYSTGSTRYADSVKGRFTISRDNAKNTVYLQMNSLKPEDTAVYYCAARAKSRGYWGQGTQVTVSS”, “high polyreactivity”. Then “QVQLVESGGGVVQAGGSLRLSCAASGRIFLKYTMGWYRQAPGKARELVAAISRGGSTYYADSVKGRFTISRDNAKNTVYLQMNSLKPEDTAVYYCAATSYRRTGYNYWGQGTQVTVSS”, with “high polyreactivity”; and “QVQLVESGGGLVQAGGSLRLSCAASGYIFYYNAMGWYRQAPGKERELVAVISRTGASTYYADSVKGRFTISRDNAKNTVYLQMNSLKPEDTAVYYCAVRYETVDGNWRYFYWGQGTQVTVSS”, with “high polyreactivity”; and “QFQLVESGGGLVQAGGSLRISCAASGITLRRNAMGWYRQAPGKEREWVAAISWSGGRTYYADSVKGRFTISRDNAKNTVYLQMNSLKPEDTAVYYCAARGYPLTAFDYWGQGTQVTVSS”, with “high polyreactivity”. With “QVQLVESGGGLVQAGGSLRLSCAASGYTFAGNAMGWYRQATGKERELVAAISRSGGRTYYADSVKGRFTISRDNAKNTVYLQMNSLKPEDTAVYYCAAYFPRTLFEFGYWGQGTQVTVSS”, the “polyreactivity (PSR sort gate)” value is recorded as “high polyreactivity”. To “QVQLVESGGGLVQAGGSLRLSCAASGRTVDWYAMGWYRQAPGTDRELVAVISSSGGRTYYADSVKGRFTISRDNAKNTVYLQMNRLKPEDTAVYYCATQNGSKRYSYYYWGQGTQVTVSS” belongs “high polyreactivity”; to “QVQLVESGGGLVQAGGSLRLSCAASGSIFSFYAMGWYRQAPGKERELVAGIDISGGSTYYADSVKGRFTISRDNAKNTVYLQMNSLKPEDTAVYYCAAAKRTDYFYFVAKSGFRYYSWGQGTQVTVSS”, “high polyreactivity”; to “QVQLVESGGGLVQAGGSLRLSCAASGSIFEGNAMGWYRQAPGKEREFVAAITKRGGSTYYADSVKGRFTISRDNAKITVYLQMNSLKTEDTAVYYCAKGYRRVFGPFYYWGQGTQVTVSS”, “low polyreactivity”. Then “QVQLVESGGGLVQAGGSLRLSCAASGFIFFRYAMGWYRQAPGKERELVAAISRTGGRTYYADSVKGRFTISRDNAKNTVYLQMNSLKPEDTAVYYCAARRHSRVKYRDYWGQGTQVTVSS”, with “high polyreactivity”; and “QVQLVESGGGLVQAGGSIRLSCAASGFIFWANAMGWYIQAPGKERELVAAISGSGGRTYYADSVKGRFTISRDNAKNTVYLQMNSLKPEDTAVYYCAAKVSAWKKKSEMNYWGQGTQVTVSS”, with “high polyreactivity”.

On to “QVQLVESGGGLVQAGGSLRLSCAASGSTIYRNAMVWYRQAPGKERELVAAISKSGGSTYYADTVKGRFTISRDNAKNTVYLQMNSQKPEDTAVYYCNSRYWVTTGGYWGQGTQVTVSS”, for which the “polyreactivity (PSR sort gate)” value is given as “high polyreactivity”. To “QVQLVESGGGLVQAGGSLRLSCAASGFTFAGYAMGWSRQAPGKERELVAGIRSSGARTYYADSVKGRFTISRDNAKNTVYLQMNSLKPEDTAVDYCAKTDGFYRGYGYWGQGTQVTVSS” belongs “low polyreactivity”; to “QVQLVESGGGLVQAGGSLRLSCAASGSTFRRNAMGWYRQSPGKERELVAAISWRGGSTYYADSVKGRFTISRDYAKNTVYLQMNSLKPEDTAVYYCNTYHPYWGSGFDYWGQGTQVTVSS”, “low polyreactivity”; to “QVQLVESGRGLVQAGGSLRLICAASGNIFWYNAMGWYRQAPGKERELVAAINWSGGSTYYADSVKGRFRISRDNAKNTVYLEMNSLKPEDTAVYYCYAEWYDGDALQWVEYWGQGTQVTVSS”, “high polyreactivity”. To “QVQLVESGGGLVQAGGSLRLSCAASGSIFDAYAMGWYRQAPGKERELVAAISLSDTSTYYADSVKGRFTISRDNAKNTVYLQMNSLKPEDTAVYYCAAEFYIAYIEYDYWGQGTQVTVSS” belongs “high polyreactivity”. To “QVHLVESGGGLVQAGGSLRLSCAASGRGYYALGWYRQAPGKERELVAAISRGGNTKYADSVKGRFTISRDNAKNSVYLQMNSLKPEDTAVYYCAAYAYSYELYYWGQGTQVTVSS” belongs “high polyreactivity”; to “QVQLVESGGGLVQAGGSLRLSCDASGRIFYSYDIGWYRQAHGKARELVATISSAGSTYYADSVKGRFTISRDNAKNTVYLQMNSLKPEDTAVYYSARRSGWWTRMDSWGQGTQVTVSS”, “high polyreactivity”.
